According to the nanobody polyreactivity screen of Harvey et al. (2022):

test: yeast display, Sf9 membrane polyspecificity reagent, FACS + sequencing; frameworks hold sequencing errors
Outline: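 Galactose-induced (36–48 hours) yeast carrying a synthetic nanobody display library were exposed to 10% biotinylated, detergent-solubilized Sf9 membrane reagent at 4 °C for 1 hour. FACS followed streptavidin microbead enrichment, using low and high (top ~1%) gates for expression (anti-HA) and reagent binding (streptavidin). Colony PCR, MiSeq 2 × 250 sequencing and CDR-length filtering followed. Labels for polyreactivity reflect the gate of origin.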

Row | Sequence | polyreactivity (PSR sort gate)
1 | QVQLGESGGGLVQAGGSLRLSCAASGSTFGRYVMGWYRQAPAKERELVDAISKNAGSTYYADSVKGRFTISRDIAKKTVYLQMNSLKPEDTAVYYCAADWRTKGYDSLGQGTQVTVSS | high polyreactivity
2 | QVQLGESGGGLVQAGGSLRLSCAASGSTFTRYGMGWYRQAPGKERELVAAITTSGSSTYYADSVKGRFTISRDNAKNTVYLQMNSLKPEDTAVYYCAADWSSWGFDYWGQGTQVTVSS | low polyreactivity
3 | QVQLGESGGGLVQAGGSLRLSCAPTGRTFVRNAIGWYRPAPGKERELVAAISYSGGSTTYADSVKGRFTISRDNAKNTVYLQMNSLKPADTAVYYCAKKPPVGEPSGREYWGQGTQVTVSS | low polyreactivity
4 | QVQLGESGGGLVQAGGSLRLSCVASGFIFRGNAMGWYRQAPGKERELVATISSGGNTYYADSVKGRFTISRDNAKNTVYLQINSLKPEDTAVYYCNASDGLPTKLNVYVEFDYWGQGTQVTVSS | low polyreactivity
5 | QVQLGESGGGLVQAGVSLRLSCAASGNTFYWNAMGWYRQAPGKERELVAAISTTGVSTYYADSVKGRFTISRDNAKNTVYLQMNSLKPEDTAVYYCAVDPPYSNPITINEDYWGQGTQVTVSS | low polyreactivity
6 | QVQLGESGGGLVQSGGSLRLSCAASGIIFRNYAMGWYRPAPGKERELVATITGDGGSTYYADSVKGRFTISRDNAKNTVYFQMNSLKPEDTAVYYCAAEYHHYYYYWGEYWGQGTQVTVSS | low polyreactivity
7 | QVQLGESGGGLVQSGGSLRLSCAASGYIFNHNAMGWYRQAPGKEWELVAGISIGGSTYYADSVKGRFTISRDNAKNTVYLQMNRLIPEDTAVYYCNTQPPLIYRGVKSDYSGQGTQVTVSS | low polyreactivity
8 | QVQLGESGGGVVQAGVSLRLSCAASGSTFTLYAMGWYRQAPGKERELVAAINGAGSTYYADSVKGRFTISRDNAKNTVYLQMNSLKPEDTAVYYCAKDLKYGWSDYWGQGTQVTVSS | low polyreactivity
9 | QVQLGESGGSLVQAGASLRLSCAASAITFYGNAMGWYRQAPGKERELVAAIRRGGSTNYADSVKGRFTISRDNAKKTVYLQMNSLKPEDTAVYYCAADSYGYTFRNYRVGYWGHGTQVTVSS | high polyreactivity
10 | QVQLGESGGVLVQAGGSLRLSCSASGSTFYSNAMGWYRQAPVKEREFVAAITGSGGSTYYADSVKGRFTISRDNAQNTVYLQMNSLKPEVTAVYYCAAGTRIYNSWIRFDYWGQGTQVTVSS | high polyreactivity
11 | QVQLGESGGVLVQAGGSLSLSCAASGNIFGRYAMGWYRQAPGKEWELVAANTRSAGSTYYADSVKGRFTISRDNEKTTVYFQMNSLKPEDTAVYYCAAAHWGYAYRRYGYGGQGTQVTVSS | high polyreactivity
12 | QVQLGESRGGLVQAVGSLSLSCAAYGFTYDKNAMGWYIQAPGNESALDAAINIRSTYYAESVKGRFTISRDNAKNTVYLQMNSMKPEDTAVYYCANEVPSGYWFNYYYWGQGTQVTVSS | low polyreactivity
13 | QVQLGESVGGLVQAGGSLRLSCAASGSILFPYPMGWYRQAPGKERELVAAISWSGDSTRYADSVKGRFTISRDNAKNTVYLQMNSLKPEVTAVYYCATSSDATGTFAPMDSWGQGTQVTVSS | low polyreactivity
14 | QVQLGETGGGLVQAGGSLRLICAASGSTFTINGMGWSRQAPGKDRELVAAITSGGSTYYADSVKGRFTISRDNAKNTVYLQMNSLKPEDTAVYFCAAADGRDYWGQGTQVTVSS | low polyreactivity
15 | QVQLHESGGGLEQAGGSLRLSCAASGYISDIGTMGWYRQAPGKEREFVATIVVGSTTNYADSVKGRFTISRDNAKNSVYLQPESGRYRGVLLRGWLLAVGKFTYWGQGTQETVSS | low polyreactivity
16 | QVQLHESGGGLVQAGGGLRLSCAASGSISSTGFMGWYRQAPGKEREPVAAIAPGTTTYYADSVKGRFTISRDNAKNTVYLQMNSLRPEDTAVYDCADFTDNRVAFLYWGQGTQVTVSS | low polyreactivity
17 | QVQLHESGGGLVQAGGGLRLSCAASGSISSTGFMGWYRQPPGKEREPVAAIAPGTTTYYADSVKGRFTISRDNAKNTVYLQMISLRPEDTAVYYCAVFTDNRVAFLYWGQGTQVTVSS | low polyreactivity
18 | QVQLHESGGGLVQAGGSLRLSCAASGTISVTYNMGWYRQAPGKEREFVAGNSTGATTNYADSVKDRFTISRDNAKNTLYLQMNRLKPEDTAVYYCAAHIYRQDHFYYWGQGTQVTVSS | low polyreactivity
19 | QVQLHESGGGLVQAGGSLRLSCAASGTISYAGPMGWYRQAPGKEREFVAGIGVGSNTNYADSVKGRYTIIRDNAKNTVYLQMNSLKPVDTAVYYCAVGGYAPLGRPYWGQGTQVTVSS | low polyreactivity
20 | QVQLHESGGGLVQAGGSLRLSCAASGTITYAGPMGWYRQAPGKEREFVAGIGVGSNTNYADSVKGRYTIIRDNAINTVYLEKNSLKPEDTPVYYCAVGGYAPLGRPYWGQVTQVTVSS | low polyreactivity
21 | QVQLHESGGGLVQAGGSLRMSCAASGTISYAGPMGWYLQATGKESEFVAGIGVGSNTNYADSVKGRYTIIRDNAINTLYLQLNSLQPEDTAVYYGAVGGYAPLGRPYWGQGTQVTVRS | low polyreactivity
22 | QVQLHESPGGLVLAGGSLRLSCAESGYISWSFTMGLYRKAPGKEREFVAGITYGGISYYADSVKGRFTISRDNAIITVYLQMNTLKPEDTAVYYCAAPQTNPYVYVYWGQGTQVTVSS | high polyreactivity

Row | Sequence | polyreactivity (PSR sort gate)
23 | QVQLIESGGGLVQAGGSHRLSCAASGRIFAYYAMGWYRQAPGKERELVAGISQRGSRTYYADSVKGRFTISRDNAKNTVYLQMNSLKPEDTAVYYCAARDRRSVTMDYWGQGTQVTVSS | high polyreactivity
24 | QVQLIESGGGLVQAGGSLRLSCAASGRIFYYNAMGWYRQAPGKERELVAVITRSGGSTYYADSVKGRFTISRDTAKNTVYLQMNSLKQEDTAVYYCAKTWKGGYGYDYWGQGTQVTVSS | low polyreactivity
25 | QVQLIESGGGLVQAGGSLRLSCAASGRTFRRYAMGWYRQAPGKERELVAAIDASGGSTYYADSVMGRFTISRDTSKNTVYLQMTILKQEDSAVSYCNTCSGQLQLQGGRHEYWGQGTQVTVSS | high polyreactivity
26 | QVQLKENGVGLVQAGGSLRMSCAASGYISHADEMGWNSQAPGKEHELVASISNGGSTNYADSVKGRFTISRDNAKNSVYLQMNSLKSEDTAVYYCAAWTGQVDINYYWGQGSQVTVSS | low polyreactivity
27 | QVQLLDSGGGLVQAGCSLRLSCAASGLIFHRNAMGWYRQAPGKERELVAIISSGGGTTYYADSVKGRFTISRDNAKNTVYLQKNSLKPEDTAVYYCNARPRAYGSRGFDYWGQGTQVTVSS | high polyreactivity
28 | QVQLLDSGGGLVQAGGSLRLSCAASGFTFDDYDKGWYRPPPGKERELVAAISWSGGSTYYADSVKGRFTISRDNAKNTVYLQMNSLKPEDTAVYYCAAERSYGGFDYWGQGTQVTVSS | low polyreactivity
29 | QVQLLDSGGGLVQAGGSLRLSCAASGLILVPNTMGWYRQAPGKERELVADIRSGGTTNYADSVKGRFTISRDNAKNTVYLVMNSLKPEDTAVSYCAKEKYDYVGDYEVDYWGHGTQVTVSS | low polyreactivity
30 | QVQLLDSGGGLVQAGGSLRLSCAASGSTISRNAMGWYRQAPGKERELVAAITSKGDSSYYADSVKGRFTISRDNAKNTVYLQMNSLKPEDTAVYYCAKDGVPAQDIGMDYWGQGTQVTVSS | low polyreactivity
31 | QVQLLERGGGLVQAGGSLRLSCMASGSILVDRMSWYRQAPGKEHELVATIYDGGITYYADSMTGRFTISRDNAKNTVYLQMIRQRPEDTAVYYCGASFERYRYHVYCGQGTQVTVSS | low polyreactivity
32 | QVQLLESGAGLVQAGGSLRLIWAASGIIIGHYGMGWYRQAPGKERELVAVISSSGGRTYYADSVKGRFTISRDNAKNTVYLQMNSLKPEDTAVYYCNGGPQVRYWQGTYEYWGQGTQVTVSS | high polyreactivity
33 | QVQLLESGGALVQAVGSLRLSCMASGSILGDRMSWYRQAPGKEHELVATIYDGGITYYADSMKGRFTISRDNAIHTVYLQMNSLRPEDTAVYYCGASLEGYRYNVYCGQGTQVTVSS | low polyreactivity
34 | QVQLLESGGGIVQAGGSLRLSCAASGSIFRYYAMGWYRQAPGKEREFVASITYRGGRTYYADSVKGRFTISRDNAKNTVYLQMNSLKPEDTAVYYCAARTRAGAWTSKYHDYWGQGTQVTVSS | high polyreactivity
35 | QVQLLESGGGIVQAGGSLRLSCAASGSIFWGYAMGWYRQAPGKERELVAAISSSGGNTYYADSVKGRFTISRDNAKNTVYLQMNSLQPEETAVYYCAATPEFYGGKITDVSSQYGYWGQGPQVTVSS | low polyreactivity
36 | QVQLLESGGGLDQAGGSLRLSCAASGRTFDRYAMGWYRQAPGKERELVAAISGRGGSTYYADSVKGRFTISRDNAKNTVYLQMNSLKPEDTAVYYCAARGSLWGAPTDYYYWGQGTQVTVSS | high polyreactivity
37 | QVQLLESGGGLDQAGGSLRLSCAAYGRIFGPNAMGWYRQAPGKERELVAAISWSGGTTRYADSVKGRFTISRDNAKNSVYLQMNSQKPEDTAVYYCAASADDRRSGKRYDSWGHGTQVTVSS | high polyreactivity
38 | QVQLLESGGGLDQAGGTLRLSCAASGGTINLYAMAWYRPAPGKERELVAAISWSGGTTYYADSVKGRFTLSRDNAKNTVYLQIISLKPVDTAVYYCAAYFRTSLGTYDYWGQGTKVTVSS | high polyreactivity
39 | QVQLLESGGGLGQAGGRLRLICAASGRTFTPYAMGWYRPAPGKERELVAAIDTSGGSTYADSVKGRFTISRDNAKNTVYLQMNCQKPEDTAVYYCATRGFYSWDYWYLWEYDYWGQGTQVTVSS | low polyreactivity
40 | QVQLLESGGGLGQAGGSLRLSCAASGSILSINGMGWYRQAPGKERELVATIDGSDGSTFYADSVKGRFTISRDNAKNTVYLQMNSQKPEDTAVYYCAAENFWQTKEYDYWGQGTQVTVSS | low polyreactivity
41 | QVQLLESGGGLLQAGGSLRLSCAASGSIFDFNAMGWYRQAPGKERELVAAITYIGDSTYYADSVKGRFTISRDNAKNTVYLQMNILKPEDTAVYYCANYRYPSRQYSFPLGYDYWGQGTQVTVSS | high polyreactivity
42 | QVQLLESGGGLVHAGGSLRLSCAASGRIFLGNAMGWYIQAPRKERELVASISRGGGTTYYADSVKGRITISRDNAKNTVYLQMNRLKPEDTAVYYCAARVYYVVQHGKYVYWGQGTQVTVSS | high polyreactivity
43 | QVQLLESGGGLVQAGGCLRLSCAASGSIFYPYALGGYRQAPGIVRELVAAISSREGRSYYADSVKGRFTISRDNGKKTVYLQMNSLKPEDTAVYYCAACSFNYGHRFYWGQGSQVTVSS | high polyreactivity
